Assay in all cases: Y2H; output trait library
Test [1] concerns the target T1, OsMADS6 aa 50-200 (Oryza sativa, UniProt Q6EU39 50-200).
T1 construct: bait, Gal4 DBD fusion; also called PN20233
T1 sequence: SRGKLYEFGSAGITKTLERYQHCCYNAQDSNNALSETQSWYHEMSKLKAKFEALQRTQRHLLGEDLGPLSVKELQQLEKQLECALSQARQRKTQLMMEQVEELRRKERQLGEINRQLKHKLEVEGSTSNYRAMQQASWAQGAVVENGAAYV
Put shortly:
(§1)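 Myriad Genetics Inc. (Salt Lake City, Utah) supplied the automated, high-throughput yeast two-hybrid assay used to detect protein-protein interactions. A bait clone encoding a defined amino-acid fragment of a rice protein was screened against a rice prey library, either the input trait or the output trait library. To identify the interacting proteins, prey clones were retrieved and their encoding sequences were compared against databases by BLAST.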

The target in test [2] is T2, OsCYCOS2 aa 170-310 (Oryza sativa, UniProt A2YH60 170-310).
T2 construct: bait, Gal4 DBD fusion; also called PN20257
T2 sequence: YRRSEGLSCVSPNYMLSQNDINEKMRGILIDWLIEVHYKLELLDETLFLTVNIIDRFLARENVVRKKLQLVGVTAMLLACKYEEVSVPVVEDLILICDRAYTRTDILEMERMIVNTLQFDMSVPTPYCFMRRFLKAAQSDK
Put shortly: as §1

For test [3], the target named is T3, OsCYCOS2 aa 50-233 (Oryza sativa, UniProt A2YH60 50-233).
T3 construct: bait, Gal4 DBD fusion; also called PN20257; O. sativa Cyclin OsCYCOS2
T3 chain: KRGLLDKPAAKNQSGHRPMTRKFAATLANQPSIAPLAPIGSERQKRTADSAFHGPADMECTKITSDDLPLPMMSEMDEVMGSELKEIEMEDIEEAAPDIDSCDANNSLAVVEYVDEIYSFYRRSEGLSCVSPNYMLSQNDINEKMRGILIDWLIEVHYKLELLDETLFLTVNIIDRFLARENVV
The gist of the method:
as §1

For test [4], the target named is T4, OsE2F1 aa 100-250 (Oryza sativa).
T4 construct: bait, Gal4 DBD fusion; also called PN19758; O. sativa E2F Homolog
Put shortly:
as §1

T4 sequence (chain, as listed by the source): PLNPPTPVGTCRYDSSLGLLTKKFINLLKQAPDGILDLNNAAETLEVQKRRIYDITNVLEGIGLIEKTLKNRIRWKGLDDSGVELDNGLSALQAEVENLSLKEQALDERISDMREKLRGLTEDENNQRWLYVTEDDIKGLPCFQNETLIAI

B1: OsFDRMADS8 aa 91-233 (other)
chain: KDDTLGLAKKLEALDESRRKILGENLEGCSIEELRGLEMKLEKSLHNIRLKKTELLERQIAKLKEKERTLLKDNENLRGKHRNLEAAALVANHMTTTTAPAAWPRDVPMTSSTAGAADAMDVETDLYIGLPGTERSSNRSETG
notes: prey, AD fusion; also called PN20698
Regarding B1, the binding result in test [1] was “binds”.

B2: OsPN30854 aa 100-169 (other)
chain: RIDVVNRQLKPLGKTCVKKEKEYKEILEAYNEKNKEKALLVNRLIELVSESERMRMKKLEELNKTVDSLY
notes: prey, AD fusion; also called Novel Protein PN30854, unknown
Take B2: the binding result in test [2] is “binds”.

B3: OsPN29966 aa 8-216 (other)
chain: GTISAVEQESARQIASKDAEIAFLNEKLHQFRNSGLSLSEGRDKLYEEIYNLRQQLVTLSKSLLNSEWGLSVSHYNNFEGAEDESKHRGNEKSSKDGITKENGSKGSNEDIFIDPTVLKHMDRDELVAHFNKMMNQMKRQHDSTLQEKTEEIFRLKRENLKKEGPNPWHLRNNKEFELMRKKIWEVITKLDEVLVENKRTIRIKSDVFP
notes: prey, AD fusion; also called Novel Protein PN29966, Fragment, myosin heavy chain
B3: the binding result in test [3] was “binds”.

B4: OsMADS18 aa 64-249 (other)
chain: EGILERYQRYSFDERAVLEPNTEDQENWGDEYGILKSKLDALQKSQRQLLGEQLDTLTTKELQQLEHQLEYSLKHIRSKKNQLLFESISELQKKEKSLKNQNNVLQKLMETEKEKNNAIINTNREEQNGATPSTSSPTPVTAPDPIPTTNNSQSQPRGSGESEAQPSPAQAGNSKLPPWMLRTSHT
notes: prey, AD fusion; also called PN20912
Regarding B4, the binding result in test [1] was “binds”.

B5: OsMADS7 aa 95-259 (other)
chain: RESEQLKASRNEYLKLKARVENLQRTQRNLLGPDLDSLGIKELESLEKQLDSSLKHVRTTRTKHLVDQLTELQRKEQMVSEANRCLRRKLEESNHVRGQQVWEQGCNLIGYERQPEVQQPLHGGNGFFHPLDAAGEPTLQIGYPAEHHEAMNSACMNTYMPPWLP
notes: prey, AD fusion; also called PN21116
Regarding B5, in test [1], the binding result is “binds”.

B6: OsMADS5 aa 61-171 (other)
chain: SCMYKTLERYRSCNYNLNSCEASAALETELSNYQEYLKLKTRVEFLQTTQRNLLGEDLVPLSLKELEQLENQIEISLMNIRSSKNQQLLDQVFELKRKEQQLQDANKDLKR
notes: prey, AD fusion; also called PN20770
On to B6, for which, in test [1], the binding result is recorded as “binds”.

B7: PN26210 aa 422-646 (other)
chain: IAELTAKAEEQQKLILKLEDDILKGYSSTDRRTSLLNDWDLQEIGSNEVAEGTDPRHAPQDQDQSSMLKVICNQRDRFRTRLRETEEELRRLKEKYEMLVVELEKTKADNVQLYGKIRYVQDYSHEKIVSRGPKKYAEDVESGSSDVETKYKKMYEDDINPFAAFSKKEKDQRYKELGLRDKITLSSGRFLLGNKYARTFIFFYTIGLHLLVFTLLYRMSALSYL
notes: prey, AD fusion; also called O. sativa Putative CCAAT Displacement Protein
In the case of B7, in test [2], the binding result is on record as “binds”.

B8: OsBAA81880 aa 120-228 (other)
chain: IDELQQLEKNLEAGLHRVMLTKDQQFMEQISELQRKSSQLAEENMQLRNQVSQISPAEKQVVDTENFVTEGQSSESVMTALHSGSSQSQDNDDGSDVSLKLGLPCGAWK
notes: prey, AD fusion; also called PN20837
Regarding B8, the binding result in test [1] is listed as “binds”.

B9: OsPN29968 aa 12-113 (other)
chain: LVNNEDVVAIKQMQHLILGRLQDSNAVLTHFNEYSEQCFAEVSNDFAGKTRLLKSMKADLDHIFLKLRGMKSRLAATYPDAFPTGAMAETMDQRPDLESPLD
notes: prey, AD fusion; also called Novel Protein PN29968, Similar to A. thaliana Unknown Protein BAB01990
As to B9, the binding result in test [3] is “binds”.

B10: OsPN23484 aa 90-245 (other)
chain: RLQREKAAAQMEARQFRRYAEGREDREREVQEELASLSDLAASYHSRLQSHGIDPDSFSDDGEEEQHDEEDGEEVEQIDTAALQTDGSSGGDSIGGMQVKAMVDDDEEEQFTPVEKEFEYTVDVRCASSTTKVSGAVVVGEFMGEGNAAAGGLYAR
notes: prey, AD fusion
With B10, the binding result in test [2] is on record as “binds”.

B11: PN20815 aa 1-134 (other)
chain: MDKELKERDEKYVELDTKFQRLHKRAKQRIQDIQKEKDDMEARFNEINQKAEQASSLQSAAQQELERARQQASEALRSMDAERQQLRTVNSKLRTNLDEARVALEARNNVLEKLRQSMFEKEQLLEQTQASLQS
notes: prey, AD fusion; also called Hypothetical Protein PN20815 Similar to A. thaliana Myosin Heavy Chain, Fragment
As for B11, the binding result in test [2] is “binds”.

B12: Os018989-4003 aa 9-179 (other)
chain: AAAASAAPGLANLLIREGAGLPSRPERYPPFRPCTSDSFAPISREGDDIPPQKKSVSLRSGGGGNAAEREEGGANRNGKKEKTGAQRITGWGLREFSKIVSKKVEAKGRTTYNEVADEIFAELKSITQNGLEFDEKNIRRRVYDAFNVLIAIRVIAKDKKEIKWMGLTNYR
notes: prey, AD fusion; also called PN21044; Hypothetical Protein 018989-4003, Similar to Triticum sp; DP Protein
With B12, the binding result in test [4] was “binds”.

B13: OsPN29961 aa 10-215 (other)
chain: QKDGAPDEGSVGVPGRKTKETVTAADAIIDALDTAEEEVKRLDQHQEGQNNGNGTTFQPNVIMQGQSPSDYVLNVVSNVRPNDLEQALLSLPFSDALKIMSYLKEWSMVPLKVELVCRVCLVLLQTHHSQLTTTPSARSILTELKGILYSRVKECKDAIGFNLAAMDHIKELLAMRSDAPFRDARAKLMEIRQEQSRRSDRSDGAE
notes: prey, AD fusion; also called Novel Protein PN29961, Fragment, Similar to A. thaliana Unknown Protein BAB02349
For the molecule B13, the binding result in test [3] is “binds”.

B14: Os008339 aa 108-226 (other)
chain: ELAETSLRLRQMRGEELHRLNVEQLQELEKSLESGLGSVLKTKSKKILDEIDGLERKRMQLIEENLRLKEQVSRMSRMEEMQPGPDSEIVYEEGQSSESVTNASYPRPPPDNDYSSDTS
notes: prey, AD fusion; also called PN20847
For the molecule B14, the binding result in test [1] is on record as “binds”.

B15: OsPN29942 aa 1-159 (other)
chain: EHESDEEKNEVDTSNEIKEIVIDDMEPKVFQAGFLFMYRDNLVGDDELSASSSDCSIFDTLAGKLLAAADRYELPRLRLLCESYLCKHISVNSVATTLALADRHHAMELKSVCLKFAAENLSAVIRTDGFDYLKDNCPALQSEILRTVAGCEEECSSGG
notes: prey, AD fusion
As for B15, the binding result in test [2] is “binds”.

B16: OsPN29958 aa 3-304 (other)
chain: QNEVSALEKQTLSLANDCLQSNKLRMEENALSTQVLKTNMRSSGDQNTVRTVKDMELQKLHGTIKALQKVVTDTAVLLDQERLDFNANLQEARKQIEVLKLKEILDDDLIEMNYEQMLKDIQLDLIQISSGNKTGSLGQANKTVAQANEKMLDSHGIVGASSSHVRNDLRPPQSESFERDNYKRPPSELMVVKELSIDKQELPRSITTEPHQEWKNKVIERLASDAQRLNALQSSIQELKTNTEASEGLELESVRYQIREAEGFITQLIDSNGKLSKKAEEFTSEDGLDGDNIDLRSRHQRK
notes: prey, AD fusion; also called Novel Protein PN29958, Fragment, centromere homologue
Regarding B16, in test [3], the binding result is reported as “binds”.

B17: OsPN23484 aa 64-212 (other)
chain: RELQAELDAERASAETATSEAMLMIERLQREKAAAQMEARQFRRYAEGREDREREVQEELASLSDLAASYHSRLQSHGIDPDSFSDDGEEEQHDEEDGEEVEQIDTAALQTDGSSGGDSIGGMQVKAMVDDDEEEQFTPVEKEFEYTVD
notes: prey, AD fusion
As to B17, the binding result in test [2] is “binds”.

B18: PN26210 aa 364-613 (other)
chain: VGYNSIEAEDWELATNGEEMSKLEALLLDKNRKMEHELTQLKVKISEKSNLLEEAEKKIAELTAKAEEQQKLILKLEDDILKGYSSTDRRTSLLNDWDLQEIGSNEVAEGTDPRHAPQDQDQSSMLKVICNQRDRFRTRLRETEEELRRLKEKYEMLVVELEKTKADNVQLYGKIRYVQDYSHEKIVSRGPKKYAEDVESGSSDVETKYKKMYEDDINPFAAFSKKEKDQRYKELGLRDKITLSSGRFLL
notes: prey, AD fusion; also called Putative CCAAT Displacement Protein
With B18, the binding result in test [2] is given as “binds”.

B19: OsPN29882 aa 107-273 (other)
chain: ALMVERLEGSRQKLLMEIDSQSSEIEKLFEENSALSTSYQEAVAVTMQWENQVKDCLKQNEELRSHLEKLRLEQATLLKTSNTTIQPDGQNETSISFPPEFVTENLSLKDQLIKEQSRSEGLSAEIMKLSAELRKAVQAQNNLARLYRPVLRGIESNLMKMKQETYA
notes: prey, AD fusion; also called Novel Protein PN29882, Fragment, myosin heavy chain
Turning to B19, the binding result in test [3] was “binds”.

B20: OsPN29967 aa 16-174 (other)
chain: PPTRRALTLTLTLTLLLSLAMSEPASPPPAMPEDAAPPQPQPEPAVPAGEEAAPSLERKEELLPVEEKISELDESQSQLMGRLRGLKEDLLNWRSSLDTQVTKYKSELSDIKTALNSEIEQLRSDFQELRTTLKKQQEDVSNSLKNLGLQDATDNDGNK
notes: prey, AD fusion; also called Novel Protein PN29967, Fragment, unknown
With B20, the binding result in test [3] was “binds”.

B21: OsPN23484 aa 77-233 (other)
chain: AETATSEAMLMIERLQREKAAAQMEARQFRRYAEGREDREREVQEELASLSDLAASYHSRLQSHGIDPDSFSDDGEEEQHDEEDGEEVEQIDTAALQTDGSSGGDSIGGMQVKAMVDDDEEEQFTPVEKEFEYTVDVRCASSTTKVSGAVVVGEFMG
notes: prey, AD fusion
On to B21, for which the binding result in test [2] is “binds”.

B22: OsMADS15 aa 73-183 (other)
chain: YSYAEKALISAESESEGNWCHEYRKLKAKIETIQKCHKHLMGEDHESLNLKELQQLEQQLESSLKHIISRKSHLMLESISELQKKERSLQEENKALQKELVERQKNVRGQQ
notes: prey, AD fusion; also called PN20842
Regarding B22, in test [1], the binding result is “binds”.

B23: PN23136 aa 66-191 (other)
chain: LRERIHKTRQHITQLVKDTSEKLKQASEADHRVEVSASKKIADAKLAKDFQAVLKEFQKAQRLAVEREAAYAPFISQAGLPQSYNSSEVNNGADKLAEQRTALLESRRQELVFLDNEIVFNEAVIE
notes: prey, AD fusion; also called Hypothetical Protein BAA85200 Similar to Syntaxin Related Protein AtVam3p
Take B23: the binding result in test [3] is “binds”.
